Data reported in US20090175881A1 (SCHERING, published 2009).
Substitutions are numbered along the chain they refer to. Names and notes keep the numbering of the source. Values joined by “and” are separate entries in the source; they are usually repeats but may differ in a detail not shown here. Equal entries are not always repeated.

T1: FLAG-huIL-17A (human, UniProt Q16552 24-155)
T1 construct: also called FLAG-huL-17A; FLAG-IL-17A
T1 sequence: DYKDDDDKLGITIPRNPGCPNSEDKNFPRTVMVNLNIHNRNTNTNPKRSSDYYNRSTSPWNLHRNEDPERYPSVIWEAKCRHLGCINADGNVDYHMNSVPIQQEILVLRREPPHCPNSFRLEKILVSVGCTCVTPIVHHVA

T2: rhIL-17A (human, UniProt Q16552 24-155)
T2 sequence: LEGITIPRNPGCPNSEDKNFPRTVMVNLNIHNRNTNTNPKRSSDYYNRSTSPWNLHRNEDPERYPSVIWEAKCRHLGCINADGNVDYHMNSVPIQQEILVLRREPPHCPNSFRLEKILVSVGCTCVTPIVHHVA

T3: native human IL-17A (human, UniProt Q16552 24-155)
T3 sequence: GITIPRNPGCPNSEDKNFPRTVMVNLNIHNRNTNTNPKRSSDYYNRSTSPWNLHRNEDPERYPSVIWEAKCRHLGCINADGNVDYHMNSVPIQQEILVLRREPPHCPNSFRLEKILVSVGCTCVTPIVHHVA

T4: cynomolgus monkey IL-17A (cynomolgus monkey, UniProt A0A2K5TTB0 24-155)
T4 sequence: T3 sequence with T3A, P8S, N34S, I77V, N78K, P104R

T5: R&D Systems human IL-17A (human, UniProt Q16552 20-155)
T5 construct: Bought from R&D Systems, made in E. coli; also called R&D IL-17A; E. coli-derived human IL-17 (IL-17A)
T5 sequence: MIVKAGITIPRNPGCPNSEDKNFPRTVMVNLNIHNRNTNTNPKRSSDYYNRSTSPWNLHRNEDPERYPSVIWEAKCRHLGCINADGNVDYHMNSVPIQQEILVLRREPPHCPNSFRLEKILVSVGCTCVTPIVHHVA

B1: rat 30C10 (antibody, V domains shown)
VH: EVQLVESGGGLVQPGRSQKLSCVVSGFTFNNYWMTWIRQAPGKGLEWVASVSNTGSSTYYPASVKGRFTISRDNAKSTLYLQMNSLRSEDTATYYCTREGAYYLDYWGQGVMVTVSS
VL: DIVMTQSPSSLAVSPGETVTINCKSSQSLFWSESHMNYLAWYQQKPGQSPKLLIYYASTRQSGVPDRFIGSGSGTDFTLTISGVQAEDLAVYYCHHHYDSHTFGAGTKLELKR
notes: Parental rat monoclonal antibody (hybridoma PTA-7739); also called 30C10C
B2: chimeric 16C10 (antibody, human IgG1, kappa, V domains shown)
VH: QVELRESGPGLVQPSQTLSLTCTVSGFSLPSHSVSWIRQPPGKGLEWMGIIWNNGGTDYNSAFKSRLTISRDTSKSQVFLKMNSLQTEDTAMYFCARNMYITDYYYENYFMDAWGQGASVTVSS
VL: DIVMTQSPSSLAVSIGETVTLNCKSSQSLLFSENQKNYLAWYQHKSGQSPKLLVYWTSTRQSGVPDRFMGSGSGTDFTLTISSVQAEDLAIYYCQQSYYTPYTFGAGTKLELKR
notes: also called chimeric 16C10C
B3: humanized 16C10 wt (antibody, human IgG1, kappa, V domains shown)
VH: QVQLQESGPGLVKPSETLSLTCTVSGFSLPSHSVSWIRQPPGKGLEWIGIIWNNGGTDYNSAFKSRVTISVDTSKNQFSLKLSSVTAADTAVYYCARNMYITDYYYENYFMDAWGQGTLVTVSS
VL: DIVMTQSPLSLPVTPGEPASISCKSSQSLLFSENQKNYLAWYLQKPGQSPQLLIYWTSTRQSGVPDRFSGSGSGTDFTLKISRVEAEDVGVYYCQQSYYTPYTFGQGTKVEIKR
notes: Humanized antibody with the parental rat CDRs; Human IgG1/kappa; also called hu 16C10 wt; hu16C10 (wt)
B4: hu 16C10 VH N54A (antibody, human IgG1, V domains shown)
VH: B3 VH with N54A
VL: B3 VL
notes: Variant of hu 16C10 wt; Human IgG1/kappa; also called hu16C10 (N54A)
B5: hu 16C10 VH M96K (antibody, human IgG1, V domains shown)
VH: B3 VH with M99K
VL: B3 VL
notes: Variant of hu 16C10 wt; Human IgG1/kappa; also called hu16C10 (M96K)
B6: hu 16C10 VH M100hF (antibody, human IgG1, V domains shown)
VH: B3 VH with M111F
VL: B3 VL
notes: Variant of hu 16C10 wt; Human IgG1/kappa; also called hu16C10 (M100hF)
B7: humanized 16C10 (VH N54Q/M96A) (antibody, human IgG1, kappa, V domains shown)
VH: B3 VH with N54Q, M99A
VL: B3 VL
notes: Human IgG1/kappa; also called hu 16C10; hu16C10
B8: hu 16C10 VH N54Q/M96A/M100hF (antibody, human IgG1, kappa, V domains shown)
VH: B3 VH with N54Q, M99A, M111F
VL: B3 VL
notes: Human IgG1/kappa; also called hu 16C10 VH 54Q/M96A/M100hF; hu16C10 (N54Q/M96A/M100hF)
B9: hu 16C10 VH N54Q (antibody, human IgG1, V domains shown)
VH: B3 VH with N54Q
VL: B3 VL
notes: Variant of hu 16C10 wt; Human IgG1/kappa; also called hu16C10 (N54Q)
B10: hu 16C10 VH M96A (antibody, human IgG1, V domains shown)
VH: B3 VH with M99A
VL: B3 VL
notes: Variant of hu 16C10 wt; Human IgG1/kappa; also called hu16C10 (M96A)
B11: rat 12E6 (antibody, V domains shown)
VH: EVQLEESGGGLVQPGRSLKLSCAASGFTFRDYYMVWVRQAPKKGLEWVASISYEGSSIYYGESVKGRFTISRDNAKSTLYLQMNSLRSEDTATYYCARHGFNPFDYWGRGVMVTVSS
VL: DIQMTQSPSSLSASLGDRVTITCRTSQDIGNYLSWFQQKPGKSPRLMIYGASNLEDGVPSRFSGSRSGSDYSLTISSLESEDTAIYYCLQYDKYPNTFGAGTKLELKR
B12: rat 4C3 (antibody, V domains shown)
VH: B2 VH
VL: B2 VL with I15V
B13: hu 16C10 VH M96F (antibody, human IgG1, V domains shown)
VH: B3 VH with M99F
VL: B3 VL
notes: Variant of hu 16C10 wt; Human IgG1/kappa
B14: hu 16C10 VH N60Q (antibody, human IgG1, V domains shown)
VH: B3 VH with N60Q
VL: B3 VL
notes: as for B13
B15: hu 16C10 VH M100hL (antibody, human IgG1, V domains shown)
VH: B3 VH with M111L
VL: B3 VL
notes: as for B13
B16: hu 16C10 VH N60A (antibody, human IgG1, V domains shown)
VH: B3 VH with N60A
VL: B3 VL
notes: as for B13
B17: hu 16C10 VH M96L (antibody, human IgG1, V domains shown)
VH: B3 VH with M99L
VL: B3 VL
notes: as for B13
B18: hu 16C10 Fab (Fab, V domains shown)
VH: B3 VH with N54Q, M99A
VL: B3 VL
notes: also called Fab fragment of hu 16C10

These binders were tested against T1, FLAG-huIL-17A (assay: ECL (Origen), antibody titrated against biotinylated antigen; area under the curve).
From the text: (§1) Origen electrochemiluminescence technology, developed by IGEN, Inc. (Gaithersburg, Md., USA), and was employed to measure the binding of rat anti-human IL-17A antibodies (and one chimeric antibody) to FLAG-huL-17A. […] Electrochemiluminescence technology uses a stable ruthenium metal chelate (Ori-TAG) which, in the presence of tripropylamine (TPA), generates electrochemiluminescence upon voltage application. Paramagnetic beads, microns in diameter, act as the solid phase and facilitate rapid assay kinetics. The bead/complex is channeled through a flow cell and captured at an electrode by magnetic application. Voltage is applied and resulting electrochemiluminescence is measured.
(§2) ECL assays were performed as follows. Three-fold serial dilutions of anti-human IL-17A mAbs in 50 μl of the assay buffer were made in a 96-well microtiter plate to give 1-3 μg/ml final concentration in the first well. […] Finally 50 μl of Origen Streptavidin-Dynabeads at 0.1 mg/ml was added to each well. […] GraphPad Prism software (GraphPad Software, San Diego, Calif., USA) was used to plot the data and calculate area under the curve, which is a rough measure of binding.

Row | Binder | Area Under Peak
1 | B1 | 312000
2 | B2 | 346000

Each binder was assayed against T2, rhIL-17A (assay: cell-based or functional assay).

Row | Binder | IC50, synoviocyte IL-6 production, rhIL-17A (30 ng/ml)
3 | B3 | 0.08 µg/mL
4 | B4 | 0.06 µg/mL
5 | B5 | 0.06 µg/mL
6 | B6 | 0.07 µg/mL
7 | B7 | 0.07 µg/mL
8 | B8 | 0.07 µg/mL
9 | B9 | 0.06 µg/mL
10 | B10 | 0.06 µg/mL

The binders below were run against T3, native human IL-17A (assay: cell-based or functional assay).

Row | Binder | IC50, synoviocyte IL-6 production, Native huIL-17A (10 ng/ml)
11 | B7 | 0.025 µg/mL

What follows are binders tested against T4, cynomolgus monkey IL-17A (assay: cell-based or functional assay).

Row | Binder | IC50, synoviocyte IL-6 production, NHP IL-17A (30 ng/ml)
12 | B7 | 0.07 µg/mL

Target: T2, rhIL-17A
Test: cell-based or functional assay
Remark: another data set of the same source

Row | Binder | IC50, synoviocyte IL-8 production, rhIL-17A (30 ng/ml)
13 | B3 | 0.042 µg/mL
14 | B4 | 0.025 µg/mL
15 | B5 | 0.025 µg/mL
16 | B6 | 0.05 µg/mL
17 | B7 | 0.038 µg/mL
18 | B8 | 0.04 µg/mL
19 | B9 | 0.025 µg/mL
20 | B10 | 0.025 µg/mL

Target: T3, native human IL-17A
Test: cell-based or functional assay
Remark: another data set of the same source

Row | Binder | IC50, synoviocyte IL-8 production, Native huIL-17A (10 ng/ml)
21 | B7 | 0.05 µg/mL

Target: T4, cynomolgus monkey IL-17A
Test: cell-based or functional assay
Remark: another data set of the same source

Row | Binder | IC50, synoviocyte IL-8 production, NHP IL-17A (30 ng/ml)
22 | B7 | 0.038 µg/mL

Target: T2, rhIL-17A
Test: cell-based or functional assay
Remark: another data set of the same source

Row | Binder | IC50, inhibition of IL-6 production in NHDF cells, rhIL-17A
23 | B11 | > 70 nM
24 | B1 | 0.5 nM
25 | B12 | 0.5 nM

Target: T4, cynomolgus monkey IL-17A
Test: cell-based or functional assay
Remark: another data set of the same source

Row | Binder | IC50, inhibition of IL-6 production in NHDF cells, cyno IL-17A
26 | B11 | > 70 nM
27 | B1 | 0.2 nM
28 | B12 | 0.2 nM

Each binder was assayed against T2, rhIL-17A (assay: indirect ELISA, rhIL-17A coated on plate).
Method: Binding of anti-human-IL-17A monoclonal antibodies to rhIL-17A is assessed using an indirect enzyme-linked immunosorbent assay (ELISA). Briefly, a fixed concentration of rhIL-17A is bound directly to the wells of a microtiter plate. The monoclonal anti-IL-17A to be assayed is then is added to the rhIL-17A coated plate, where the antibody is captured and quantitated.
A 96-well U-bottom MaxiSorp plate is coated with 50 μl/well of rhIL-17A (0.5 μg/ml) in carbonate coating buffer (the “assay plate”). Carbonate coating buffer is 2.9 g/L NaHFCO₃, 1.6 g/L Na₂CO₃, pH 9.4. Plates are incubated covered at 4° C. overnight. Monoclonal antibodies to be screened are serially diluted in duplicate across the rows of a V-bottom plate such that the final volume is 60 μl/well (the “serial dilution plate”). The assay plate is washed three times with PBS-Tween in a plate washer (SkanWasher, Molecular Devices, Sunnyvale, Calif., USA) and blotted dry. PBS-Tween is obtained by adding 0.5 ml/L Tween 20 to 1×PBS. Fifty μl from each well of the serial dilution plate is transferred to the assay plate and incubated at 25° C. for one hour. Secondary antibodies are diluted 1/2000 in diluent (PBS-BSA-Tween, which is PBS-Tween with 1 g/L BSA). The secondary antibody for rat monoclonal antibodies is goat anti-rat IgG (H+L)—HRP (Jackson ImmunoResearch Laboratories, Inc., West Grove, Pa., USA). The secondary antibody for chimeric and humanized monoclonal antibodies is F(ab′)₂ goat anti-human IgG Fcγ—HRP (Jackson ImmunoResearch Laboratories, Inc.). The assay plate is washed as before. Diluted secondary antibodies (100 μl/well) are added to the appropriate wells in the assay plate, and the plate is incubated at 25° C. for 45 minutes. The assay plate is washed as before.

Row | Binder | EC50
29 | B2 | 0.157 nM
30 | B3 | 0.212 nM

What follows are binders tested against T2, rhIL-17A (assay: sandwich ELISA, IL-17A captured on rat 12E6, antibody titrated).
Method: (§3) Binding of anti-human-IL-17A monoclonal antibodies to rhIL-17A is assessed using an ELISA as follows. Briefly, a capture antibody is bound to the wells of a microtiter plate, after which a fixed concentration of rhIL-17A is added. The monoclonal anti-IL-17A to be assayed is then titrated versus the bound rhIL-17A on the plate to determine the concentration of antibody needed to achieve half-maximal binding. A more detailed protocol follows.
(§4) A 96-well microtiter plate is coated with 100 μl/well of capture antibody (rat anti-hIL-17A 12E6, 0.5 μg/ml) in carbonate coating buffer pH 9.5 (the “assay plate”). Plates are incubated covered at 4° C. for 24 to 48 hours. The assay plate is washed three times in a plate washer (SkanWasher, Molecular Devices, Sunnyvale, Calif., USA) and blotted dry. The plate is then blocked with 200 μl/well of ELISA assay buffer (20 mM Tris-HCl, 0.15 M NaCl, pH7.4, 0.5% BSA, 0.05% Tween-20, SM EDTA) for one hour at 25° C. on an orbital shaker. The plate is washed, and 100 μl/well of either adenovirus-derived rhIL-17A or E. coli-derived human IL-17 (IL-17A) (R&D Systems, Minneapolis, Minn., USA) (0.1 g/ml) is added in ELISA assay buffer and incubated for 2 hours at 25° C. on an orbital shaker. […] Plates are incubated for 1.5 hours at 25° C. on an orbital shaker. Plates are washed and 100 μl/well secondary antibody (F(ab′)₂ goat anti-human kappa light chain—HRP, 1:20,000 dilution, BioSource, Carlsbad, Calif., USA) is added, except for assay blank wells. Plates are washed twice (i.e. two cycles of 3 washes per cycle) with plate rotation between cycles. TMB substrate (Kirkegaard & Perry Laboratories, Gaithersburg, Md., USA) is added at 100 μl/well and incubated 3-5 minutes on an orbital shaker. Stop solution is added (100 μl/well) and the plate is read for absorbance at 450-570 um on a plate reader (Versamax, Molecular Devices, Sunnyvale, Calif., USA).

Row | Binder | EC50
31 | B3 | 0.066 nM
32 | B4 | 0.075 nM
33 | B13 | 0.125 nM
34 | B14 | 0.074 nM
35 | B15 | 0.053 nM
36 | B16 | 0.063 nM
37 | B5 | 0.068 nM
38 | B6 | 0.049 nM
39 | B7 | 0.092 nM
40 | B8 | 0.08 nM
41 | B17 | 0.066 nM
42 | B9 | 0.065 nM
43 | B10 | 0.06 nM

The binders below were run against T5, R&D Systems human IL-17A in the same assay as above.
Method: as §3, §4

Row | Binder | EC50
44 | B3 | 0.13 nM
45 | B7 | 0.136 nM
46 | B8 | 0.118 nM

Each binder was assayed against T2, rhIL-17A (assay: KinExA, solution equilibrium).
Method: (§5) The equilibrium dissociation constants (Kd) for anti human IL-17A antibodies were determined using the KinExA 3000 instrument (Sapidyne Instruments Inc., Boise, Id., USA). KinExA uses the principle of the Kinetic Exclusion Assay method based on measuring the concentration of uncomplexed antibody in a mixture of antibody, antigen and antibody-antigen complex. […] The concentration of free antibody is measured by exposing the mixture to a solid-phase immobilized antigen for a very brief period of time. l practice, this is accomplished by flowing the solution phase antigen-antibody mixture past antigen-coated particles trapped in a flow cell. Data generated by the instrument are analyzed using custom software.
(§6) IL-17A was derived from either human (“hu”), cynomolgus monkey (“cyno”), or mouse (“mu”). IL-17A from the same species was used in both the immobilized and solution phases for each KinExA determination. Poly(methyl-methacrylate) (PMMA) particles (98 micron) were coated with human, cyno or mouse IL-17A according to Sapidyne “Protocol for coating PMMA particles with biotinylated ligands having short or nonexistent linker arms.” All experimental procedures were done according to the KinExA 3000 manual. All runs were done in duplicate.
(§7) Two-fold serial dilutions of the antigen were prepared and mixed with the antibody at constant concentration. The mixture was incubated for 2 hours at 25° C. to equilibrate.

Row | Binder | Kd
47 | B3 | 0.0088 nM
48 | B18 | 0.0161 nM
49 | B4 | 0.0108 nM
50 | B7 | 0.0039 nM
51 | B8 | 0.01 nM
52 | B9 | 0.007 nM
53 | B10 | 0.0099 nM

The binders below were run against T4, cynomolgus monkey IL-17A (assay: KinExA, solution equilibrium).
Method: as §5, §6, §7

Row | Binder | Kd
54 | B1 | 0.0326 nM
55 | B7 | 0.0163 nM

The binders below were run against T1, FLAG-huIL-17A (assay: KinExA, solution equilibrium).
Method: as §5, §6, §7

Row | Binder | Kd
56 | B1 | 0.011 nM

The binders below were run against T4, cynomolgus monkey IL-17A (assay: ECL (Origen); area under the curve).
From the text: as §1, §2

Row | Binder | Area Under Peak
57 | B1 | 124000

Target: T2, rhIL-17A
Test: cell-based or functional assay
Remark: another data set of the same source

Row | Binder | IC50, Ba/F3 hIL-17Rc-mGCSFR proliferation assay, IL-17A at 100 pM | IC50, Ba/F3 hIL-17Rc-mGCSFR proliferation assay, IL-17A at 276 pM
58 | B2 | 29 pM | 
59 | B7 | 15 pM and 13 pM and 27 pM | 149 pM
60 | B8 | 11 pM | 

Target: T4, cynomolgus monkey IL-17A
Test: cell-based or functional assay
Remark: another data set of the same source

Row | Binder | IC50, Ba/F3 hIL-17Rc-mGCSFR proliferation assay, IL-17A at 100 pM
61 | B7 | 17 pM
